The results in this text go back to patent US20230111363A1 (LMMUNOMETABOLISM DEVELOPMENT, published 2023).

Assay [1] addresses T1, human monocarboxylate transporter 1 (MCT1) (human, UniProt P53985 1-500).
T1 sequence: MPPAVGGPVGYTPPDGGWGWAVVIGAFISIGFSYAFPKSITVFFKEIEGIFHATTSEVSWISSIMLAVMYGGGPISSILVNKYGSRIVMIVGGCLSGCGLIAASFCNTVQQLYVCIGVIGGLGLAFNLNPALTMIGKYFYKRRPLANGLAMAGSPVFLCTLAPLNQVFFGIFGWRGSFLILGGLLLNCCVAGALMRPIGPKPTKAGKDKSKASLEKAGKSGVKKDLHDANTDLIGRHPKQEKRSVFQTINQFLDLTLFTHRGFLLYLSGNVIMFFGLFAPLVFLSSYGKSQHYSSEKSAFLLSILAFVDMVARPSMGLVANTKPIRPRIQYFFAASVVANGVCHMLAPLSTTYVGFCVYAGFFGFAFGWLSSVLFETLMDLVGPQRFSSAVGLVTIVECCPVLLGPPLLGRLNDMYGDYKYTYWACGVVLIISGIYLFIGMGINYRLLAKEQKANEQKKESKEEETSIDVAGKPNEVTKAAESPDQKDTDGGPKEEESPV
The assay is described as follows: cell-based or functional assay.

Assay [2] deals with T1, human monocarboxylate transporter 1 …. The assay is described as follows: competition MSD binding assay, antibody titrated with HEK WT cells expressing MCT1, apparent KD, screening at 25 C. How it is done:
The mix was incubated at 37° C. for 1-2 days. After incubation, the incubated samples were spun down for 5 min at 500×g to remove cells. A 96-well multi-array plate (Meso Scale Diagnostics, Cat. #L15XA-3) was coated at 4° C. overnight with 1 μg/mL of goat anti human FC in phosphate buffered saline (PBS). Following coating, plates were washed 3 times with 150 μL PBST (PBS with 0.05% Tween 20) and blocked with 150 μL/well of PBS 3% blocker A buffer (Cat #R93BA-1) at 25° C. for 1 hr. Plates were then washed 3 times with PBST. 50 μL of the preincubated antibody: cell dilution series was transferred to the wells and incubated at 25° C. with 700 rpm shaking for 1 hr. Plates were washed 3 times with PBST. Then 100 μL of 1 μg/mL anti-human kappa-biotin antibody (Cat. #2060-08) was added, and plates were incubated at 25° C. with 700 rpm shaking […]. Plates were washed 3 times with PBST, followed by addition of 100 μL of 1 μg/mL MSD Sulfo-tag streptavidin antibody (Meso Scale Diagnostics Cat. #R32 AD1), and plates were incubated at 25° C. with 700 rpm shaking for 1 hr. Plates were washed 3 times with PBST, 150 μL/well of 1× Read Buffer T was added to the wells and analyzed on a SECTOR® Imager 6000 (Meso Scale Diagnostics) 15 min after buffer addition. The apparent KD is determined by fitting a sigmoidal curve to the electrochemiluminescence (ECL) response vs. log (MCT1 receptor concentration) using assay development tool kit graphed with normalized ECL values.

The target is the same in assay [3]. The assay is described as follows: cell-based or functional assay. The source holds these as a separate data set.

B1: anti-human MCT1 antibody Ab7 (antibody, human IgG1, kappa, V domains shown)
VH: QVQLVQSGAEVKKPGASVKVSCTVSGRSRTNYHLQWVRQAPGQGLEWMGFIRSSGNTEYNSEFKSRVTMTRDTSTSTVYMELSSLRSEDTAVYYCARNRWYHGTYYSPGYYVMDAWGQGTLVTVSS
VL: EIVLTQSPGTLSLSPGERATLSCKGSQNIENYLAWYQQKPGQAPRLLIYNRHNLQTGIPDRFSGSGSGTDFTLTISRLEPEDFAVYYCYQYSDGYTFGGGTKVEIKR
notes: IgG1EN backbone
As to B1, the “IC50 of inhibition of MCT1 mediated transport (bromopyruvate assay, HEK293T cells)” value in assay [1] is 28 nM. The Kd in assay [2] was determined as 0.47 nM. Further, in assay [3], the “IC50 of inhibition of CD4 T cell proliferation” value came out at 2 nM and the “IC50 of inhibition of CD8 T cell proliferation” value came out at 4 nM.

B2: anti-human MCT1 antibody Ab9 (antibody, human IgG1, kappa, V domains shown)
VH: QVQLVQSGAEVKKPGASVKVSCTVSGRSLTNYHIQWVRQAPGQGLEWMGFIRSSGNTEYNSEFKSRVTMTRDTSTSTVYMELSSLRSEDTAVYYCARNRWYHGTYYSPGYYVMDAWGQGTLVTVSS
VL: EIVLTQSPGTLSLSPGERATLSCKGSQNIENYLAWYQQKPGQAPRLLIYNRHNLQTGIPDRFSGSGSGTDFTLTISRLEPEDFAVYYCYQYSDGYTFGGGTKVEIKR
notes: IgG1EN backbone
Turning to B2, the “IC50 of inhibition of MCT1 mediated transport (bromopyruvate assay, HEK293T cells)” value in assay [1] worked out at 35 nM. The Kd in assay [2] amounted to 4.56 nM. In assay [3], the “IC50 of inhibition of CD4 T cell proliferation” value is 4 nM and the “IC50 of inhibition of CD8 T cell proliferation” value was 5 nM.

B3: anti-human MCT1 antibody Ab11 (antibody, human IgG1, kappa, V domains shown)
VH: QVQLVQSGAEVKKPGASVKVSCTVSGRSLTNYHLQWVRQAPGQGLEWMGFIRSSGNTEYNSEFKSRVTMTRDTSTSTVYMELSSLRSEDTAVYYCARNRWHHGTYYSPGYYVMDAWGQGTLVTVSS
VL: EIVLTQSPGTLSLSPGERATLSCKGSQNIENYLAWYQQKPGQAPRLLIYNRHNLQTGIPDRFSGSGSGTDFTLTISRLEPEDFAVYYCYQYSDGYTFGGGTKVEIKR
notes: IgG1EN backbone
With B3, the “IC50 of inhibition of MCT1 mediated transport (bromopyruvate assay, HEK293T cells)” value in assay [1] amounted to 35 nM. The Kd in assay [2] stood at 1.91 nM. Besides, in assay [3], the “IC50 of inhibition of CD4 T cell proliferation” value came out at 4 nM and the “IC50 of inhibition of CD8 T cell proliferation” value turned out to be 5 nM.

B4: anti-human MCT1 antibody Ab10 (antibody, human IgG1, kappa, V domains shown)
VH: QVQLVQSGAEVKKPGASVKVSCTVSGRSLTGYHLQWVRQAPGQGLEWMGFIRSSGNTEYNSEFKSRVTMTRDTSTSTVYMELSSLRSEDTAVYYCARNRWYHGTYYSPGYYVMDAWGQGTLVTVSS
VL: EIVLTQSPGTLSLSPGERATLSCKGSQNIENYLAWYQQKPGQAPRLLIYNRHNLQTGIPDRFSGSGSGTDFTLTISRLEPEDFAVYYCYQYSDGYTFGGGTKVEIKR
notes: IgG1EN backbone
For the molecule B4, the “IC50 of inhibition of MCT1 mediated transport (bromopyruvate assay, HEK293T cells)” value in assay [1] is 39 nM. The Kd in assay [2] came out at 0.85 nM. Also, in assay [3], the “IC50 of inhibition of CD4 T cell proliferation” value is 3 nM and the “IC50 of inhibition of CD8 T cell proliferation” value was 7 nM.

B5: anti-human MCT1 antibody Ab12 (antibody, human IgG1, kappa, V domains shown)
VH: QVQLVQSGAEVKKPGASVKVSCTVSGRSLTNYHLVWVRQAPGQGLEWMGFIRSSGNTEYNSEFKSRVTMTRDTSTSTVYMELSSLRSEDTAVYYCARNRWYHGTYYSPGYYVMDAWGQGTLVTVSS
VL: EIVLTQSPGTLSLSPGERATLSCKGSQNIENYLAWYQQKPGQAPRLLIYNRHNLQTGIPDRFSGSGSGTDFTLTISRLEPEDFAVYYCYQYSDGYTFGGGTKVEIKR
notes: IgG1EN backbone
Regarding B5, the “IC50 of inhibition of MCT1 mediated transport (bromopyruvate assay, HEK293T cells)” value in assay [1] came out at 39 nM. Also, the Kd in assay [2] was 1.64 nM. In addition, in assay [3], the “IC50 of inhibition of CD4 T cell proliferation” value is 4 nM and the “IC50 of inhibition of CD8 T cell proliferation” value came out at 5 nM.

B6: anti-human MCT1 antibody Ab8 (antibody, human IgG1, kappa, V domains shown)
VH: QVQLVQSGAEVKKPGASVKVSCTVSGRSLTNYHLQWVRQAPGQGLEWMGFIRSSGNTIYNSEFKSRVTMTRDTSTSTVYMELSSLRSEDTAVYYCARNRWYHGTYYSPGYYVMDAWGQGTLVTVSS
VL: EIVLTQSPGTLSLSPGERATLSCKGSQNIENYLAWYQQKPGQAPRLLIYNRHNLQTGIPDRFSGSGSGTDFTLTISRLEPEDFAVYYCYQYSDGYTFGGGTKVEIKR
notes: IgG1EN backbone
As for B6, in assay [1], the “IC50 of inhibition of MCT1 mediated transport (bromopyruvate assay, HEK293T cells)” value was 21 nM. In assay [2], the Kd turned out to be 0.55 nM. Further, in assay [3], the “IC50 of inhibition of CD4 T cell proliferation” value came to 3 nM and the “IC50 of inhibition of CD8 T cell proliferation” value stood at 3 nM.
